From IntAct's records for PubMed 29106382

B1: Angiopoietin-1 (Homo sapiens), Q15389 (parent)
chain: MTVFLSFAFLAAILTHIGCSNQRRSPENSGRRYNRIQHGQCAYTFILPEHDGNCRESTTDQYNTNALQRDAPHVEPDFSSQKLQHLEHVMENYTQWLQKLENYIVENMKSEMAQIQQNAVQNHTATMLEIGTSLLSQTAEQTRKLTDVETQVLNQTSRLEIQLLENSLSTYKLEKQLLQQTNEILKIHEKNSLLEHKILEMEGKHKEELDTLKEEKENLQGLVTRQTYIIQELEKQLNRATTNNSVLQKQQLELMDTVHNLVNLCTKEGVLLKGGKREEEKPFRDCADVYQAGFNKSGIYTIYINNMPEPKKVFCNMDVNGGGWTVIQHREDGSLDFQRGWKEYKMGFGNPSGEYWLGNEFIFAITSQRQYMLRIELMDWEGNRAYSQYDRFHIGNEKQNYRLYLKGHTGTAGKQSSLILHGADFSTKDADNDNCMCKCALMLTGGWWFDACGPSNLNGMFYTAGQNHGKLNGIKWHYFKGPSYSLRSTTMMIRPLDF

Variants of: B1
Conditions: with tie2_human TEK

effect of a mutation on the interaction | Variant
with no effect | MTVFLSFAFLAAILTHIGCSNQRRSPENSGRRYNRIQHGQCAYTFILPEHDGNCRESTTDQYNTNALQRDAPHVEPDFSSQKLQHLEHVMENYTQWLQKLENYIVENMKSEMAQIQQNAVQNHTATMLEIGTSLLSQTAEQTRKLTDVETQVLNQTSRLEIQLLENSLSTYKLEKQLLQQTNEILKIHEKNSLLEHKILEMEGKHKEELDTLKEEKENLQGLVTRQTYIIQELEKQLNRATTNNSVLQRQQLELMDTVHNLVNLCTKEGVLLKGGKREEEKPFRDCADVYQAGFNKSGIYTIYINNMPEPKKVFCNMDVNGGGWTVIQHREDGSLDFQRGWKEYKMGFGNPSGEYWLGNEFIFAITSQRQYMLRIELMDWEGNRAYSQYDRFHIGNEKQNYRLYLKGHTGTAGKQSSLILHGADFSTKDADNDNCMCKCALMLTGGWWFDACGPSNLNGMFYTAGQNHGKLNGIKWHYFKGPSYSLRSTTMMIRPLDF [K249R]
